Read-outs that look alike come from different tables or passages of the source.
Key:
Experiment in all cases: scintillation proximity assay (SPA); 5 nM GST-WASP variant immobilised on protein A SPA fluoromicrospheres via an anti-GST antibody; varying concentrations of [3H]GTP·Cdc42; direct binding isotherm; apparent Kd; low-salt buffer
GST-WASP(201–254) = GST-WASP(201–254) (UniProt P42768)
GST-WASP(201–321) F244A = GST-WASP(201–321) F244A (UniProt P42768)
GST-WASP(201–321) F271A = GST-WASP(201–321) F271A (UniProt P42768)
GST-WASP(201–321) G251A = GST-WASP(201–321) G251A (UniProt P42768)
GST-WASP(201–321) H246A = GST-WASP(201–321) H246A (UniProt P42768)
GST-WASP(201–321) H249A = GST-WASP(201–321) H249A (UniProt P42768)
GST-WASP(201–321) I233A = GST-WASP(201–321) I233A (UniProt P42768)
GST-WASP(201–321) K235A = GST-WASP(201–321) K235A (UniProt P42768)
GST-WASP(201–321) L267A = GST-WASP(201–321) L267A (UniProt P42768)
GST-WASP(201–321) L270A = GST-WASP(201–321) L270A (UniProt P42768)
GST-WASP(201–321) P241A = GST-WASP(201–321) P241A (UniProt P42768)
GST-WASP(201–321) S242A = GST-WASP(201–321) S242A (UniProt P42768)
GST-WASP(201–321) V250A = GST-WASP(201–321) V250A (UniProt P42768)
GST-WASP(201–321) W252A = GST-WASP(201–321) W252A (UniProt P42768)
[1] = target: GST-WASP(201–321) wild type (UniProt P42768)
GST-WASP(201–321) K230A = GST-WASP(201–321) K230A (UniProt P42768)
[2] = target: GST-WASP(201–321) K230A/K231A (UniProt P42768)
GST-WASP(201–321) K231A = GST-WASP(201–321) K231A (UniProt P42768)
[3] = target: GST-WASP(201–321) K231A/K232A (UniProt P42768)
[4] = target: GST-WASP(201–321) wild type (UniProt P42768); remark: listed apart in the source

Cdc42 Δ7 Q61L (from UniProt P60953 1-191) (natural protein)
Kd (GST-WASP(201–254)): 0.0318 µM
Kd (GST-WASP(201–321) F244A): 0.0649 µM
Kd (GST-WASP(201–321) F271A): 0.005 µM
Kd (GST-WASP(201–321) G251A): 0.0052 µM
Kd (GST-WASP(201–321) H246A): 0.0423 µM
Kd (GST-WASP(201–321) H249A): 0.0431 µM
Kd (GST-WASP(201–321) I233A): 0.0264 µM
Kd (GST-WASP(201–321) K235A): 0.008 µM
Kd (GST-WASP(201–321) L267A): 0.0032 µM
Kd (GST-WASP(201–321) L270A): 0.0017 µM
Kd (GST-WASP(201–321) P241A): 0.0383 µM
Kd (GST-WASP(201–321) S242A): 0.0064 µM
Kd (GST-WASP(201–321) V250A): 0.0101 µM
Kd (GST-WASP(201–321) W252A): 0.0096 µM
Kd [1]: 0.0005 µM
Kd (GST-WASP(201–321) K230A): 9.7 µM
Kd [2]: 12.9 µM
Kd (GST-WASP(201–321) K231A): 12.4 µM
Kd [3]: 21.7 µM
Kd [4]: 0.5 µM

Reference: PMC6166713
